Here are results for three molecules from patent publication US12252714B2, “Halogenation of complex organic compounds” (REGENTS OF THE UNIVERSITY OF MICHIGAN, priority 2018, dated 2025).

The data set is described as follows: MalA biochemical activity assays, mutants versus wild-type MalA. The note with it: for site-selectivity of chlorination: chlorination of compound 2, C8 versus C9. On the procedure: Biochemical activity assays were performed in a 100 μL volume with the following components: 18 μM MalA, 54 μM HpaC flavin reductase,^3 100 μM FAD, 50 mM NaCl, 250 μM substrate, 5 mM NADH, and brought to total volume with reaction buffer (same as storage bufferNaBr). The chlorination reactions proceeded for 20 minutes and the bromination reactions proceeded overnight. The reactions were extracted with ethyl acetate ([…], in triplicate) and dried down under nitrogen gas. The dried extract was resuspended in LC/MS grade methanol to a concentration of around 10 μM for LC/MS analysis. High resolution mass spectrometry was performed using electrospray ionization on an Agilent quadrupole time-of-flight spectrometer (Q-TOF 6500 series). Biochemical activity was monitored via the following HPLC method using acetonitrile and water: 65% acetonitrile for 5 minutes, gradient over 10 minutes to 95% acetonitrile, 95% acetonitrile for 5 minutes, gradient over 2 minutes to 65% acetonitrile, 65% acetonitrile for 11 minutes to re-equilibrate with a flow rate of 0.3 mL/minute, monitoring at 240 nm on a Phenomenex Lux cellulose-3, cellulose Tris (4-methylbenzoate) 250×4.6 mm column.

B1: MalA H253F: MalA halogenase variant, His253 substituted with phenylalanine (protein, UniProt L0E155 1-667, looked up, variant H253F)
Flavin-dependent halogenase …: MAPTPKYTFTERAAAGNLSDAEILNSNNPTGSELPDESDVVVGGAGIHGLIYALHASKYKPNNLKISVIEKNTRPGYKIGESTLPIFYTWCKLHGISAAYLLRLFGLKDGLCFYFLDRENQGQYTDFCSVGAPGLVLASLQIERPMSELLFTILAQRNGVNVYHGREVDFKSTVVQGGGQGNKIAVSRGKYDSTPKTIDSALFVDATGRFRQFCSKKAPRHRFDGWNCNAFWGYFTAPKDESKIPFDLYEGDFTNHLCFPEGWVWVIRLPSWEGSLIANLMDMVTYILECADAGVPGDELPSSEELARMFGLKFQWVTSIGFAVRNDVKYPEDLSAYGTREAEQKFNYFVQKYELLQQFMSNFELIENLYGPGTTWFIRKTLAYQSPVVSGPGWLAIGDACGFTNPLYSPGINVGMSTSTWAAQLSHRIVEIGKSAPADAAESSIRKLLVPYDDYCKSLVPALEQMNRFNYVCYRDTRLGPQVACLWQFFAGIERYLSDVNIETFAHYAIKWVWGAMVPEYQQVAQKCIEHIETVPLDERLPDAMVDELLAFSNRIKSAAVAADDFSLRWDAILRSFDRSLNFVEGKTSRDIYTRQCSGCGAWLQLRPDWKKCHSCGLLGTEPQTAVTFDPPLTAEEEALLYAAWNTAPKYDPSKELKLPTPTRPAA
For B1, the site-selectivity of chlorination entry is “selectivity for producing the C8-chlorinated compound 4”. Moreover, the “site-selectivity profile of bromination” value (bromination of compound 2) is recorded as “same product profile as the wild-type MalA”.

B2: MalA G131S: C9-selective MalA halogenase mutant (protein, UniProt L0E155 1-667, looked up, variant G131S)
Flavin-dependent halogenase …: MAPTPKYTFTERAAAGNLSDAEILNSNNPTGSELPDESDVVVGGAGIHGLIYALHASKYKPNNLKISVIEKNTRPGYKIGESTLPIFYTWCKLHGISAAYLLRLFGLKDGLCFYFLDRENQGQYTDFCSVSAPGLVLASLQIERPMSELLFTILAQRNGVNVYHGREVDFKSTVVQGGGQGNKIAVSRGKYDSTPKTIDSALFVDATGRFRQFCSKKAPRHRFDGWNCNAFWGYFTAPKDESKIPFDLYEGDHTNHLCFPEGWVWVIRLPSWEGSLIANLMDMVTYILECADAGVPGDELPSSEELARMFGLKFQWVTSIGFAVRNDVKYPEDLSAYGTREAEQKFNYFVQKYELLQQFMSNFELIENLYGPGTTWFIRKTLAYQSPVVSGPGWLAIGDACGFTNPLYSPGINVGMSTSTWAAQLSHRIVEIGKSAPADAAESSIRKLLVPYDDYCKSLVPALEQMNRFNYVCYRDTRLGPQVACLWQFFAGIERYLSDVNIETFAHYAIKWVWGAMVPEYQQVAQKCIEHIETVPLDERLPDAMVDELLAFSNRIKSAAVAADDFSLRWDAILRSFDRSLNFVEGKTSRDIYTRQCSGCGAWLQLRPDWKKCHSCGLLGTEPQTAVTFDPPLTAEEEALLYAAWNTAPKYDPSKELKLPTPTRPAA
For B2, the site-selectivity of chlorination entry was “C9-selective”.

B3: D109A: MalA halogenase D109A mutant (protein, listed as Malbranchea aurantiaca)
chain: MAPTPKYTFTERAAAGNLSDAEILNSNNPTGSELPDESDVVVGGAGIHGLIYALHASKYKPNNLKISVIEKNTRPGYKIGESTLPIFYTWCKLHGISAAYLLRLFGLKAGLCFYFLDRENQGQYTDFCSVGAPGLVLASLQIERPMSELLFTILAQRNGVNVYHGREVDFKSTVVQGGGQGNKIAVSRGKYDSTPKTIDSALFVDATGRFRQFCSKKAPRHRFDGWNCNAFWGYFTAPKDESKIPFDLYEGDHTNHLCFPEGWVWVIRLPSWEGSLIANLMDMVTYILECADAGVPGDELPSSEELARMFGLKFQWVTSIGFAVRNDVKYPEDLSAYGTREAEQKFNYFVQKYELLQQFMSNFELIENLYGPGTTWFIRKTLAYQSPVVSGPGWLAIGDACGFTNPLYSPGINVGMSTSTWAAQLSHRIVEIGKSAPADAAESSIRKLLVPYDDYCKSLVPALEQMNRFNYVCYRDTRLGPQVACLWQFFAGIERYLSDVNIETFAHYAIKWVWGAMVPEYQQVAQKCIEHIETVPLDERLPDAMVDELLAFSNRIKSAAVAADDFSLRWDAILRSFDRSLNFVEGKTSRDIYTRQCSGCGAWLQLRPDWKKCHSCGLLGTEPQTAVTFDPPLTAEEEALLYAAWNTAPKYDPSKELKLPTPTRPAA
modifications: Wild-type MalA protein
notes: MalA halogenase D109A mutant
B3: under “chlorination of compound 2”, the “halogenase activity relative to wild-type MalA” value is given as “very low activity”.
